The results in this text go back to PMC1075921 (Nucleic Acids Research, 2005).

This test addresses transactivation domain of human p53 (residues 1–73) (human, UniProt P04637 1-73, R72). The test is described as follows: NMR titration.

B1: hRPA70_(1–168) Y118A mutant (domain or fragment)
chain: MVGQLSEGAIAAIMQKGDTNIKPILQVINIRPITTGNSPPRYRLLMSDGLNTLSSFMLATQLNPLVEEEQLSSNCVCQIHRFIVNTLKDGRRVVILMELEVLKSAEAVGVKIGNPVPANEGLGQPQVAPPAPAASPAASSRPQPQNGSSGMGSTVSKAYGASKTFGKA
In the case of B1, the “mean intensity ratio (free/with partner) of p53TAD residues 42–56” value was found to be 35 ± 34.

B2: hRPA70_(1–168) R41E mutant (domain or fragment)
chain: MVGQLSEGAIAAIMQKGDTNIKPILQVINIRPITTGNSPPEYRLLMSDGLNTLSSFMLATQLNPLVEEEQLSSNCVCQIHRFIVNTLKDGRRVVILMELEVLKSAEAVGVKIGNPVPYNEGLGQPQVAPPAPAASPAASSRPQPQNGSSGMGSTVSKAYGASKTFGKA
On to B2, for which the “intensity ratio (free/with partner) of all p53TAD residues except I50-F54” value was less than 2 and the “mean intensity ratio (free/with partner) of p53TAD residues I50-F54” value was 3.3 ± 1.7.
